Reference: the supplement of paper PMC9170038

Test system: MS2 coat protein
Test: apparent KD of MS2 coat protein; designed switch direction (-1 OFF switch, 1 ON switch): -1; higher = weaker reporter binding
How it was run: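 Three titration conditions were used: no input, 200 uM small-molecule ligand, and an oligonucleotide input. In each, SNAP-549-labelled MS2 coat protein was raised from 0.7 or 1.5 nM, doubling, to 3 µM over designed RNA switches transcribed on Illumina chips by stalled E. coli RNA polymerase. Curve fits of normalised cluster fluorescence gave values whose per-design median over clusters is the apparent KD.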

[1] = Eterna round: R95, input ligand: microRNA oligo, concentration not stated
[2] = input ligand: microRNA oligo, concentration not stated

Sequence | apparent KD of MS2 coat protein (input ligand: FMN 200 uM) [µM] | apparent KD of MS2 coat protein (input ligand: none) [µM] | apparent KD of MS2 coat protein (Eterna round: R95, input ligand: FMN 200 uM) [µM] | apparent KD of MS2 coat protein [1] [µM] | apparent KD of MS2 coat protein (Eterna round: R95, input ligand: none) [µM] | apparent KD of MS2 coat protein [2] [µM]
AAUAAGGUAGGAUAUACAUGAGGAUCACCCAUGUCCCACCCGUUACCUAUGACCAUAUGUAGAAGGACCAAUAA [Exy#1] (Eterna round: R97, puzzle: Exclusion 3) | 0.02 | 0.0213 | – | – | – | –
AUCCAGCGAGGAUAUACUUUGUUUUUUUCGUUUUGUCUCGAACAUGAGGAUCACCCAUGUAGAAGGUGCUUCAC [JR_Ex2_Sub005] (Eterna round: R97, puzzle: Exclusion 2) | 0.0608 | 0.0697 | – | – | – | –
AGUACUAACACGAGAGUGUUAGUACUAUAAGCUUGUGUUACAUGAGGAUCACCCAUGUCCUCAUAAGCUCGUCUUAU [Mat - Sensor v3 - Turn-off var 2 - D79] (puzzle: Sensor v3, turn-off variant 2) | – | – | 0.124 | 0.0405 | 0.116 | –
ACGAUGACCGAAAAGUGUUAACUGACAUGAGGAUCACCCAUGUAGGAUAUGGCUACGAAAAGUAGUCAGAAGGGCAUGUCAUCA [Omei Exc(NG) 3 Av8] (Eterna round: R96, puzzle: Exclusion NG 3) | 0.027 | 0.0273 | – | – | – | 0.0187
AGCUGUGGCCAAGGAUAUCUAACCUUAAAUACCGACGUAUAGUCGGACAUGAGGAUCACCCAUGUGGAGAAGGUGGUCUCAGCA [Eli eng2 - 043] (Eterna round: R96, puzzle: Exclusion NG 2) | – | – | – | – | – | 0.0183
UUUAAGGUAAUUAAGAUCACAUGAGGAUCACCCAUGUAUAUAUAGGAUAUCAGCUCGAUUAGAGCUGAGAAGGAUAUAUACAUA [ExNG3/6-C1] (Eterna round: R96, puzzle: Exclusion NG 3) | 0.0661 | 0.142 | – | – | – | 0.0333
UUUUGCACGCUGCGGUCCUACAUGAGGAUCACCCAUGUGGUCUGGUGGCGUGGGUCGCCGGACUUGGCUCGUCUUGG [salish99_S_TOV1_R5_035] (Eterna round: R97, puzzle: Sensor, turn-off variant 1) | 0.0155 | 0.0149 | – | – | – | –
CGUGCGUAUGUGAGGAUAUGCUGGUCCUUGGAUCGGCAGAAGGCACAUGAGGAUCACCCAUGUGGUGUCGUUCG [salish99_Bmod_ex4_093] (puzzle: Brourd's mod of Exclusion 4) | – | – | – | 0.126 | – | –
UGGGUUGUUGUGAGGAUAUACUGUUUGUUUUGUUUGUAGAAGGUACAUGAGGAUCACCCAUGUUGGUUGUGGUU [JR_BME4_Sub031] (puzzle: Brourd's mod of Exclusion 4) | – | – | – | 0.204 | – | –
GGAUGAGAGCAGGAUAUCUUAUAAAUGUAUGAAAGAGAAGGGCUCACAUGAGGAUCACCCAUGUGGUCCUAGAU [jl-ex6-4.73 jandersonlee mod] (Eterna round: R97, puzzle: Exclusion 6) | 0.28 | 0.0359 | – | – | – | –
CGAUGAGGUGUGAGGAUAUCGUGUUCGAAAGAACGUGAGAAGGCACAUGAGGAUCACCCAUGUUAACCUUGUCG [Omei Ex4B A13] (Eterna round: R97, puzzle: Brourd's mod of Exclusion 4) | 0.0115 | 0.0132 | – | – | – | –
UUCUUGCGCGUGAGGAUAUGCUGAUCCCAGGAUUAGCAGAAGGCACAUGAGGAUCACCCAUGUCCAACUUGUCU [LRO-BmodExc4-15- Bluer = mod of Colors by Tatyana Zabanova] (Eterna round: R97, puzzle: Brourd's mod of Exclusion 4) | 0.0514 | 0.0386 | – | – | – | –
AGUUUUAAUGAGGAUAUCGUAUUGGAUAUAGUGCGAGAAGGCAUUACAUGAGGAUCACCCAUGUUUUGUUGGGA [JR_Ex6_Sub008] (Eterna round: R97, puzzle: Exclusion 6) | 0.0581 | 0.0245 | – | – | – | –
UGUUGUUGAUAGGAUAUACAGGUAGGAGUAGGAGUAGAAGGAUCUACAUGAGGAUCACCCAUGUAGGAGUGAGA [JR_E6_Sub002] (puzzle: Exclusion 6) | – | – | – | 0.0149 | – | –
UCAUGGUUAGAGGAUAUAUAAUUAGUCAGAACAAUAGAAGGCUAGACAUGAGGAUCACCCAUGUAUGUUGAGGU [JR_Ex6_Sub065] (Eterna round: R97, puzzle: Exclusion 6) | 0.0426 | 0.0894 | – | – | – | –
GUUUUACAUGAGGAUCACCCAUGUGAGGAUAUAUUAUUAAUAGUGAUAAUUAUUGGUGGUAGAAGGCGCGUGAU [JR_Exc1_Sub012] (Eterna round: R97, puzzle: Exclusion 1) | 0.0509 | 0.0531 | – | – | – | –
CGACCCAUCAUAGGAUAUCACAGCACGGGAGAAAGUCUGAGGCGUCAACAUGAGGAUCACCCAUGUGAGAAGGAUGGUGGGCAG [Eternabot solution 17] (Eterna round: R96, puzzle: Exclusion NG 2) | 0.12 | 0.162 | – | – | – | 0.184

Sequence | apparent KD of MS2 coat protein (input ligand: FMN 200 uM) [µM] | apparent KD of MS2 coat protein (input ligand: none) [µM] | apparent KD of MS2 coat protein (Eterna round: R95, input ligand: FMN 200 uM) [µM] | apparent KD of MS2 coat protein [1] [µM] | apparent KD of MS2 coat protein (Eterna round: R95, input ligand: none) [µM] | apparent KD of MS2 coat protein [2] [µM]
AUAAUGUAAGGAUAUCAGUCGUUAAUAAUUAAUUAAUCGACUGAGAAGGUACAUGAGGAUCACCCAUGUGAUCA [E4/8-B2] (Eterna round: R97, puzzle: Exclusion 4) | 0.0441 | 1 | – | – | – | –
AUAUUGUGAGGAUAUGAACUUAGUAUCGAAAGAAACUAAGUUCAGAAGGCACAUGAGGAUCACCCAUGUUUCUC [Long static hairpin v10] (Eterna round: R97, puzzle: Exclusion 4) | 0.566 | 0.0632 | – | – | – | –
AAAUAAAACAAGCAAUAAAACAUGAGGAUCACCCAUGUAAAGGGUGAAGUUCGCACCCAAAAAUAAAAUAAAUAAAA [Denovo Take 6, 5] (Eterna round: R96, puzzle: Sensor v2, turn-off variant) | 0.0221 | 0.025 | – | – | – | 0.0396
CGUGUAGGAGUAGGAUAUGCGUCUAGACUACGAGCAGAAGGACUCCAGGACUUGAGGAUCACCCAAGUGCGUCCCGAGCCGUAG [Mutated MS2 EX1.23] (Eterna round: R96, puzzle: Exclusion NG 1) | 0.0119 | 0.012 | – | – | – | 0.0117
UAAAACCGGUGAGGAUAUUUUUAAUAGAGCUUUAUGAUAUACAUGAGGAUCACCCAUGUUACGUUAAAGAAGGCAUCGGAAAAU [Mat - Exclusion NG 2 - Mod of JL - D99] (Eterna round: R96, puzzle: Exclusion NG 2) | 0.0137 | 0.0199 | – | – | – | 0.0145
CUAUGUUAGCAGGAUAUGCCAUUAUUCUUUUUCGCAGAAGGGCUUACAUGAGGAUCACCCAUGUUACAUUUCUU [JR_E6_Sub086] (puzzle: Exclusion 6) | – | – | – | 0.0167 | – | –
GCCGAAAGUGUGAGGAUAUACCUAUGGAUACAUAGGUAGAAGGCACAUGAGGAUCACCCAUGUUCCUAAUCGGC [Eli bmx4 4.18] (Eterna round: R97, puzzle: Brourd's mod of Exclusion 4) | 0.306 | 0.103 | – | – | – | –
CAGUCGAUAAGAUCAAUUAAUUAACAUGAGGAUCACCCAUGUGAGGAUAUCAGCUCGAUUAGAGCUGAGAAGGCACAACGACUG [ExNG3/17-A1] (Eterna round: R96, puzzle: Exclusion NG 3) | 0.232 | 0.0468 | – | – | – | 0.0313
CUGCUCCGUGUAGGAUAUCCGCGCAACCAACGCGGAGAAGGACAUGAGGAUCACCCAUGUAUGUUAUUAUCACGUGAAGCGUCC [Design 29] (Eterna round: R96, puzzle: Exclusion NG 1) | 0.0325 | 0.0281 | – | – | – | 0.0155
ACUUACUGAGGAUAUACAUAGAUUUACAUGAGGAUCACCCAUGUUCCUCUAAGUAUAUAUGUAGAAGGCAGAAGAG [Mat - Exclusion 5 - JL Mod - D40] (Eterna round: R97, puzzle: Exclusion 5) | 0.172 | 0.145 | – | – | – | –
GCUGGUCGAGGAUAUACAAUCGUGCUUCGGCACGUAAGGUCACAUGAGGAUCACCCAUGUAGAAGGUGACCAGC [E2/2-B1] (Eterna round: R97, puzzle: Exclusion 2) | 0.0577 | 0.0207 | – | – | – | –
GUAUAACAUGUAGGAUAUGCGUGGCGAAGCUAUGCAGAAGGACAUGAGGAUCACCCAUGUAAUAGCGUCUGCGUACAGAUGCAA [Mat - Exclusion NG 1 - Mod of JL - D90] (Eterna round: R96, puzzle: Exclusion NG 1) | 0.134 | 0.0408 | – | – | – | 0.0279
GGCCGUAAUAAGGAUAUCACUAGCUUCGGCUAGUGAGAAGGUAUUACAUGAGGAUCACCCAUGUGAUCAGGCCA [E6/3-B1] (Eterna round: R97, puzzle: Exclusion 6) | 0.726 | 0.17 | – | – | – | –
GAGUGAUGAGGAUAUACAUGAGGAUCACCCAUGUGCUUCAGCUAGGAGACUAGCAUUGGUAGAAGGCAUUACUC [Mod of lroppy 7 - Jieux - Exclusion 3] (Eterna round: R97, puzzle: Exclusion 3) | 0.0901 | 0.0158 | – | – | – | –
CACCAGAGAGGAUAUGCACUCAUGGCACCGAAAGGGAGGCGACAUGAGGAUCACCCAUGUAGAAGGCUCAGCAG [Eternabot (Original) Solution 16] (Eterna round: R97, puzzle: Exclusion 2) | 0.153 | 0.0706 | – | – | – | –
ACAUGAGGAUCACCCAUGUUUUUUGGGUACUCUUGUUUCUGCAAGGAUAUGCAUUAUUUAUGUACGCAGAAGGUGCAUUACGUC [JR_ExcNG3_Sub062] (Eterna round: R96, puzzle: Exclusion NG 3) | 0.696 | 0.962 | – | – | – | 0.692
